Biological target: 30 kDa ragweed complete pollen extract disulfide protein allergen (Ambrosia trifida (giant ragweed))
Assay: Concanavalin A affinity chromatography

percent retained on affinity column: > 90%
Substance: Concanavalin A (from UniProt P02866 30-281)

— patent US20030170763A1
